The source of these data is patent US20240018254A1.

This assay deals with FcγRIIIa-bio (UniProt P08637). The experiment in a line: BLI (Fortebio), FcγRIIIa-bio on SA sensor, antibody 31.3-500 nM, 1:1 fit.
Chain of UniProt P08637 (P08637 17-208 limits assumed): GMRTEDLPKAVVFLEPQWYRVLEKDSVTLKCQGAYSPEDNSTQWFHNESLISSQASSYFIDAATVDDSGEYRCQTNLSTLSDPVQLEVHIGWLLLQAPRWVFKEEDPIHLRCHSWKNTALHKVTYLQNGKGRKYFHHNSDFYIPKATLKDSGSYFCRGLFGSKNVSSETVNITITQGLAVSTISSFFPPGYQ

For MEDI9447 (Oleclumab) (antibody), the Kd was 141 nM, the koff is 0.0342 s⁻¹ and the on-rate constant (kon) stood at 243000 M⁻¹ s⁻¹.
